The values that follow come from the DeepSol protein solubility set.

The series can be described thus: soluble on expression in E. coli; label from the status in PepcDB or PDB records.
Regarding “MSLGEKGQAEIIKSLTEQLDQVQSLDDDRIIRRYMEMINATLRTNYYQLDEHKQNKPWLSLKMKPSEIPEIPAPVPAFEIFVYAPDIEGVHLRGGKVARGGLRWSDRQEDFRTEILGLVKAQQVKNTVIVPVGAKGGFVCKKQYLYTTRDEIFAEGQRCYKRFIRALLDVTDNIIEGQVVPPKNVVRHDEDDPYLVVAADKGTATFSDLANSVSAEYQFWLGDAFASGGSNGYDHKAMGITAKGGWESVKRHFREMGIDCQTTDFTAIGIGDMAGDVFGNGMLLSKHIRLLAAFNHIHIFIDPTPDSASSWEERNRLFNLPRSSWEDYNPKLISKGGGVFSRKAKAITLTPEMQKMLNTKKTTLAPNELIKMILKMEVDLLWNGGIGTYVKSSIETHTDVGDRANDGLRVDGREVNAKIIGEGGNLGMTQRGRIEFALKGGRVNTDFVDNVGGVDCSDNEVNIKIFLNGLVANGDLTLKQRNQILESMKDEVGSIVIEDAYGQSESISVTEAQGEGHHHHHH”, the “soluble on expression in E. coli” value is “not soluble”.

For “MSYNNSYDVIILAGGLSKRFGADKCCFEVNSKTMLDRLLEQFDNPIVVSRSPRRIKKGILVIEKGEYEGPVKGVREGLKYVRRDRVFITGCDFPFLIKNLVDYVCSKPYDIVIPFDHRPQPLLACYSTELLNKNIDKINGLVELIELSSSVYFIGTEELLKIDPFLYSLININSIIDLIYRPIRIKTKSNFILRLEHHHHHH”, the “soluble on expression in E. coli” value is “not soluble”. Next, “DQALSGQLRIGASDTIGNQVAPYLLSEFRQQTNHRSQSLFISNSAQICDMLTDYELDIALIEGKTLHPELQSTQFSEDEMCVICAPDYPAAHEGPVNLTELENSEWILREAGSGSREFFMRVVAPRLEHWHEAFQLNTTEAL”: “not soluble”; “MQLASRFGHVNQIRRDRPLTREELMQVVPSVFGEDKHTSRSENYTWIPTITVLESLQREGFQPFFACQTRVRDPGRRGYTKHMLRLRRDGEINGQHVPEIILLNSHDGTSSYQMLPGYFRFVCQNGCVCGQSLGEVRVPHRGNVVEKVIEGAYEVVGVFDRIEEKRDAMQSLVLPPLARQALAQAALTYRYGDEHQPVTTADILTPRRREDYGKDLWSAYQTIQENMLKGGISGRSAKGKRIHTRAIHSIDTDIKLNRALWVMTETLLENMR”: “not soluble”; “MGSDKIHHHHHHMRRQANSPSPDPVSTTRPVAWRPTLAKQKGETKHSALTERIIADIDAGVLKPMDRMPTHRDLARELGLSVQTVSLSYKEAERLGYLSGEIGRGTFVKTRVTERAGRMMLDHSPTEVLDLSIIRGVYLDDHENASRTILREMADSDNSGFMRPCRPVAGLDSHRETARTWLGMMGVTAGAERILVTNGAAHGIFLALSCIIRSNDVVLCENLTDHGIIGLSNILGFSLKGLPTDEEGILPDALEAACAAGGVRALVLIPTLNNPTGHVSGAARRQAIATIAERYGIFIIEDEVYRPMIEDDLPSITEMLPDLGFFVTSFTKTVLTGLRVGYLVVPPAYSIRAASILRVSSWSGTYLTAEIATRWVENGTARRLLDVQRTEARARQKIAVDILGDHIGSTHPLSFCAWLTVPPRWTEDGLVRALTNQNVAVTPSEPFIAGPGHGGGIRICLGGRLNHASLARALTTVRQTFEQLPPVYDIGSIG”: “not soluble”. Then “MSLEAFIRSDQYNFIKSQAYILANGHATANDRGVIQALKSLAIEKIIHVFENLTDEQKELIDTVLTVQNREDAESFLMKIKPYVIPFQEVTAQTLKKLFPKAKKLKLPDMEEMDMKEISYLSWIDKGSSRKFIIAKNDKNKFVGLQGTFQSLNKKSICSLCHGHEEVGMFLVEIKGDIPGTFVKKGNYICKDGVACNQNMKSLDKLQDFIERLKKEGHHHHHH”, with “soluble”. Then “MSGELSNRFQGGKAFGLLKARQERRLAEINREFLCDQKYSDEENLPEKLTAFKEKYMEFDLNNEGEIDLMSLKRMMEKLGVPKTHLEMKKMISEVTGGVSDTISYRDFVNMMLGKRSAVLKLVMMFEGKANESSPKPVGPPPERDIASLP”, with “soluble”; and “MKTPTRVSFEKKIHTPPSGDRDAERSPPKKFLRGLSGKVFRKTPEFKKQQMPTFGYIEESQFTPNLGLMMSKRGNIPKPLNLSKPISPPPSLKKTAGSVASGFSKTGQLSALQSPVNITSSNKYNIKATNLTTSLLRESISDSTTMCDTLSDINLTVMDEDYRIDGDSYYEEDSPTFMISLERNIKKCNSQFSPKRYIGEKCLICEESISSTFTGEKVVESTCSHTSHYNCYLMLFETLYFQGKFPECKICGEVSKPKDKDIVPEMVSKLLTGAGAHDDGPSSNMQQQWIDLKTARSFTGEFPQFTPQEQLIRTADISCDGFRTPRLSNSNQFEAVSYLDSPFLNSPFVNKMATTDPFDLSDDEKLDCDDEIDESAAEVWFSKTGGEHVMVSVKFQEMRTSDDLGVLQDVNHVDHEELEEREKEWKKKIDQYIETNVDKDSEFGSLILFDKLMYSDDGEQWVDNNLVILFSKFLVLFDFEEMKILGKIPRDQFYQVIKFNEDVLLCSLKSTNIPEIYLRFNENCEKWLLPKWKYCLENSSLETLPLSEIVSTVKELSHVNIIGALGAPPDVISAQSHDSRLPWKRLHSDTPLKLIVCLNLSHADGELYRKRVLKSVHQILDGLNTDDLLGIVVVGRDGSGVVGPFGTFIGMINKNWDGWTTFLDNLEVVNPNVFRDEKQQYKVTLQTCERLASTSAYVDTDDHIATGYAKQILVLNGSDVVDIEHDQKLKKAFDQLSYHWRYEISQRRMTPLNASIKQFLEELHTKRYLDVTLRLPQATFEQVYLGDMAAGEQKTRLIMDEHPHSSLIEIEYFDLVKQQRIHQTLEVPNL”, with “not soluble”. For “DLKQREQALEDSRQRYQTLLQAAPDPIFVADAETGEIVEANAAAEELRGQPRDDIIGRHQTELHPEEAGGLYEDVFEQAFDDASTITELPDGTQPELATPDGETVPIEISAAAVSLPDGPVLFGVFRDVS”, the “soluble on expression in E. coli” value is “not soluble”. Next, “MGSDKIHHHHHHMKLITFVCAAFLCLPSLAQEKFPDGTPVSDWFKDSKIVDINTLGKKYILTDYGVINDSTLLQTEKIQSAIDAAAQNGGGVIVIPKGTYLSGALFFKPKTHLHLEEGAVLKGSDDISNFPIIDTRMEGQSLKYFAALVNADKVDGFTLSGKGTIDGNGLRYWKSFWLRRKVNPQCTNMDELRPRLVHISHSNNVQLSGVRLINSPFWTTHLYKCNHIKLLNLYIFSPEKPVKAPSTDAIDIDVCSNVLVKNCYMSVNDDAIALKGGKGPWADQDPNNGGNFNIIIEDCTYGFCHGALTCGSESIHNRNIILRRIHITNANRLLWLKMRPDTPQQYEYILVEDITGDADHFLYIKPWTQFFDLKDRKDIPVSYSNHVTMRNIDFKCDNFFSVEKSDQYQLTNFTFENLNIKAKNGECDKEMIDNFIWKKVSINNIK”: “not soluble”; “MKDYIRSVLDVVAESPFVPLETHARKGVLAVEKLSEAMEAYCTGNQALLDERTEEIDVLEHEADKIKQKIRASIPSSVRLPVNKKDLLSFLKQQDSIADFAQASAYWMTLRPCKDLPDEIKEGFLELMATSLKTARMYDRLVGELYKLLATSFSKEEIKETLQLVPEVEKLEHDVDVLETALLKKIFEHESAIGGAGVCHLMGLVERIGGIADKSASAADRLRSMILRRLEHHHHHH”: “soluble”. Then “MSLAESPLEIHVIADSTGETAVRLARAARSQFEGVHWHIVRHPMIGTVPEMVSALEAVSEAHEAGQWVCVVHTLVLPDMRRMVSDACEEMGIRELDLMGPMLEAMEEASGLDADAVPRRPVGVEADYFTRISAMEFAVRNDDGAIPDRLTEADICLVGVSRSGKTPLSIYLGYLGYKTVNVPLVPGIAPPTELAAVDRWRIVGLTIDAQRLLEIRGRRVRGLGGFGNEDGYADLAAIYEELDEVGKIQRRLGCPIIDTTGLALEESATKVIDVVDQRAKTAGTRLRKPAGSYRMRPEGHHHHHH”, with “soluble”. In the case of “MAHHHHHHMALISQSFAERYAELVARVPTHTELLLDVQRREVGERKALEEMCQVAFQDVLHVAGVMIADKKALGRGALAHRNRFEVALYKKQTAVWFQAAPPRKVALPTTRPLHGFPHAAFAELCQEERELRQWHYGVERRLREHIEEACGRAWFFLNVINETARSESLSRQRLQHEEDEDFTAIKQSFFRAVPADYYRNVVIARYGQTISAIEQAKDLTFEELEEKVRAALMEEEEASWRSAYQYLQDMYDAQLFALNHREVLGRYELEEEERNTLFPLILQCCREDFGIVFYHIPALALHFNSSQPCLRALCVAQLQEAPRRMAATRSRFSWIPAFDLAGMASELGLEEDGDEIEDSAEGETQEAEGSTDGGDDLHNALPPPVDDMPPINTASTMVFEPEVGSSKVPEPETKREEAEVDTSQSAVVALAQRTHEESVLATEMEEHVPVSCAGEENE”, the “soluble on expression in E. coli” value is given as “soluble”.
